“And” between values parts separate entries of the source, which are not always exact repeats. Equal values may be shown once. Where no end group is shown, it is not given here.

The target of test [1] is T1, human corticotrophin releasing hormone receptor type 2 (CRHR2) (human) (UniProt Q13324).
T1 sequence (looked up): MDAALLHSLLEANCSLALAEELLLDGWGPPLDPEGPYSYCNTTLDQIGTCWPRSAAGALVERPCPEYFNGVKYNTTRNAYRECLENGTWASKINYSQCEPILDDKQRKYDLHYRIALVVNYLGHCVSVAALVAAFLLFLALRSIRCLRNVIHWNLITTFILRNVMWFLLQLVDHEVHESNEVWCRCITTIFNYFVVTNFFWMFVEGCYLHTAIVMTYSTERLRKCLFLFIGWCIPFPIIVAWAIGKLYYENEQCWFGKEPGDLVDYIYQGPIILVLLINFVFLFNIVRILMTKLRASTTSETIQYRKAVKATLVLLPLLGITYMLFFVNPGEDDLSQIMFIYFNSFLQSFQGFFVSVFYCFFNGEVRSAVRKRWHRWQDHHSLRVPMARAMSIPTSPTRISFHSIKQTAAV
The experiment in a line: cell-based or functional assay.

Test [2] has as its target T1, human corticotrophin releasing hormone receptor type 2 (CRHR2) (human). The experiment in a line: radioligand competition against [125I]-anti-sauvagine-30, membranes of SK-N-MC cells with human CRHR2. In general terms: In a radioligand displacement assay an active substance lowers the binding of a labelled ligand.
In test [3] the target is T2, human corticotrophin releasing hormone receptor type 1 (CRHR1) (human, UniProt P34998 24-415).
T2 construct: whole, on cells; cAMP assay on whole cells; radioligand assay on cell membranes; also called h-CRHR1; CRH receptor type 1
T2 sequence (looked up): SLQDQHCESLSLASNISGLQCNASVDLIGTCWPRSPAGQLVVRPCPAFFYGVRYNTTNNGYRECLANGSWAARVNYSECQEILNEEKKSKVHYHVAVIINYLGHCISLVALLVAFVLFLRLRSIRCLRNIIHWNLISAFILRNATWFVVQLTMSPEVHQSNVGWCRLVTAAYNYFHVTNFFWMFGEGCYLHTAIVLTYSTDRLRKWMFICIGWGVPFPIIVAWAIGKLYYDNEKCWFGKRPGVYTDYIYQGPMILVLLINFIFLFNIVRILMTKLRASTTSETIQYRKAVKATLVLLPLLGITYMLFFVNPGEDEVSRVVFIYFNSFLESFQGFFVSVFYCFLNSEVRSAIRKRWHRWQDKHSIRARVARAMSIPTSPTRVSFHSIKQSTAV
The experiment in a line: radioligand competition against [125I]-(Tyr0)-sauvagine, CRHR1 assay; ND = Not detectable.

Test [4] has as its target T2, human corticotrophin releasing hormone …. The experiment in a line: radioligand competition against [125I]-(Tyr0)-sauvagine, CRHR1 assay, cell membranes. The protocol: Frozen cell pellets were defrosted on ice in 15 ml of assay buffer that was composed of 10 mM HEPES, 130 mM NaCl, 4.7 mM KCl, 5 mM MgCl₂, and 0.089 mM bacitracin at pH 7.2 and 21±3° Celsius. The solution was then homogenized with a Polytron tissue grinder at a setting of 10 and 7×3 s (Brinkmann Instruments, Westbury, N.Y.). The homogenate was centrifuged at 4° Celsius at 800×g for 5 min with the pellet being discarded. The supernatant was re-centrifuged at 26,892×g for 25 min at 4° Celsius with the final pellet being re-suspended in assay buffer. All binding assays were conducted in 96-well Multiscreen GF/B filter plates (Millipore, Billericay, Mass., U.S.A.) that were pre-soaked in assay buffer with 0.3% PEI for 1 hour. […]
The bound radioactivity was separated by filtration using a Multiscreen Resist manifold (Millipore Corp., Billerica, Mass., U.S.A). The filters were washed three times with ice-cold PBS at pH 7.5 and radioactivity retained on the filters was quantified by its liquid scintillation measured by a TopCount counter (Packard BioScience, Boston, Mass., U.S.A). […]
Data from individual competition curves were expressed as the percentage of specific [¹²⁵I]-anti-sauvagine-30 or)[¹²⁵I]-(Tyr⁰-sauvagine binding (B) within each experiment.

Test [5] shares this target. The experiment in a line: cell-based or functional assay.
For test [6], the target named is T1, human corticotrophin releasing hormone receptor type 2 (CRHR2) (human). The experiment in a line: radioligand competition against [125I]-anti-sauvagine-30, CRHR2 membranes.
In test [7] the target is T3, human corticotrophin releasing hormone receptor type 2 (CRHR2) (human, UniProt Q13324 1-411).
T3 sequence (looked up): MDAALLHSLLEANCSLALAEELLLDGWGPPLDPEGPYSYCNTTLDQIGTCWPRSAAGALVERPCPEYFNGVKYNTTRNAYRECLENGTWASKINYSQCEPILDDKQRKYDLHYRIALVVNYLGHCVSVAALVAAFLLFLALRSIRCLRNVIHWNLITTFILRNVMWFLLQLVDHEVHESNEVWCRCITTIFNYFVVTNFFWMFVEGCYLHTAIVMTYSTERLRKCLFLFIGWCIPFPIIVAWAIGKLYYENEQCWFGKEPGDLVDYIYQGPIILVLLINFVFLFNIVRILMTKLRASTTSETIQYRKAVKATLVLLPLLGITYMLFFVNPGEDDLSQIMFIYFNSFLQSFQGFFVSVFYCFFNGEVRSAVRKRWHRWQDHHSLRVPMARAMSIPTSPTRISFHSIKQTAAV
The experiment in a line: cell-based or functional assay.

Test [8] deals with T3, human corticotrophin releasing hormone …. The experiment in a line: cell-based or functional assay. The source holds these as a separate data set.

For the molecule HPGSRIVLSLDVPIGLLQILLEQARARAAREQATTNARILARV-NH2 (also called h-SRP) [human stresscopin related peptide], the pA50 in test [1] is 9.32 -log10(M) and 9.58 -log10(M) and 9.23 -log10(M). The pKI in test [2] is 7.57 -log10(M). Further, in test [3], the binding result was “no binding”.

B1: Human stresscopin with amidated C-terminus (peptide)
peptide: TKFTLSLDVPTNIMNLLFNIAKAKNLRAQAAANAHLMAQI-NH2
notes: 40-amino-acid peptide; also called h-SCP
For the molecule B1, in test [1], the A50 (concentration required for 50% maximum effect), cAMP was found to be 0.4 nM; the control pA50 across assay batches was 9.47 to 9.74 -log10(M); the pA50 is 9.4 -log10(M). In test [4], the pKI was 4.6 -log10(M). For the same molecule, the pA50 in test [5] is < 5 -log10(M). For the same molecule, the pIC50 (low affinity state) in test [6] is 6.6 -log10(M). In test [2], the pKI is 5.71 -log10(M).
For the molecule TKFTLSLDVPTNIMNLLFNIAKAKNLRAQAAANAHLMAQI-OH [non-amidated h-SCP], the pA50 in test [7] was 7.1 -log10(M). Besides, the “fold decrease in potency against the amidated parent peptide, cAMP” value in test [8] was roughly 200 fold.

For the origin of these results see patent publication US20110105397A1, “METHOD FOR TREATING HEART FAILURE WITH STRESSCOPIN-LIKE PEPTIDES” (priority 2009, published 2011).
